T1: human fibrinogen (human, UniProt P02671 20-644; P02675 31-491; P02679 27-437)
T1 construct: Amine-coupled to a CM5 chip
T1 sequence 1: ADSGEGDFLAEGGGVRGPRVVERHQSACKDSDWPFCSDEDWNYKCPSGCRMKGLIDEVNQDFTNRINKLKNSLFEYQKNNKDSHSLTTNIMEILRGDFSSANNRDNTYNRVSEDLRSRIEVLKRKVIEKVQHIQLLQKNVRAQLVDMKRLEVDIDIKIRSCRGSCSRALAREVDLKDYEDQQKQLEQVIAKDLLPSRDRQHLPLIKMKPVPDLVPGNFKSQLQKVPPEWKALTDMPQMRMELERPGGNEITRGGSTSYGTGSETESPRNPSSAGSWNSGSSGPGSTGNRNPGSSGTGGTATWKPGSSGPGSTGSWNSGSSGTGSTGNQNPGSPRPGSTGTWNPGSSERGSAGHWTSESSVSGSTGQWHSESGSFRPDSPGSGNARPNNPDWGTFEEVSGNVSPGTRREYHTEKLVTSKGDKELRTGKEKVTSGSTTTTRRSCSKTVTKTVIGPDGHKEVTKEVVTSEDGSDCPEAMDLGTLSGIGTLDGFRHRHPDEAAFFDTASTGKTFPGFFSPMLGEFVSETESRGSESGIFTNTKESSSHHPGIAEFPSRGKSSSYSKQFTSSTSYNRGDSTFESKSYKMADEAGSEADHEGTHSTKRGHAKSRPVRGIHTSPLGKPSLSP
T1 sequence 2: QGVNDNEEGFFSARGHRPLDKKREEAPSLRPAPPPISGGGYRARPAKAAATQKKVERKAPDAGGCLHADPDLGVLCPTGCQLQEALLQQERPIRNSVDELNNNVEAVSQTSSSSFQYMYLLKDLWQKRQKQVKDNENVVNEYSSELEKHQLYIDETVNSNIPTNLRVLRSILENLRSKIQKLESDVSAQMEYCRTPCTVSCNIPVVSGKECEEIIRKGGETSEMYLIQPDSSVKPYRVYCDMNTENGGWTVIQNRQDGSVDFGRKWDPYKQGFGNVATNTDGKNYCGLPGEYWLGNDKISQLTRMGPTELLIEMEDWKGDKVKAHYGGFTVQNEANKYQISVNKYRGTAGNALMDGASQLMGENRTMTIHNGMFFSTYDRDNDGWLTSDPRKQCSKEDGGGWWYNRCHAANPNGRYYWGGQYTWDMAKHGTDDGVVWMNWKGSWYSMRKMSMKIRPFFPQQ
T1 sequence 3: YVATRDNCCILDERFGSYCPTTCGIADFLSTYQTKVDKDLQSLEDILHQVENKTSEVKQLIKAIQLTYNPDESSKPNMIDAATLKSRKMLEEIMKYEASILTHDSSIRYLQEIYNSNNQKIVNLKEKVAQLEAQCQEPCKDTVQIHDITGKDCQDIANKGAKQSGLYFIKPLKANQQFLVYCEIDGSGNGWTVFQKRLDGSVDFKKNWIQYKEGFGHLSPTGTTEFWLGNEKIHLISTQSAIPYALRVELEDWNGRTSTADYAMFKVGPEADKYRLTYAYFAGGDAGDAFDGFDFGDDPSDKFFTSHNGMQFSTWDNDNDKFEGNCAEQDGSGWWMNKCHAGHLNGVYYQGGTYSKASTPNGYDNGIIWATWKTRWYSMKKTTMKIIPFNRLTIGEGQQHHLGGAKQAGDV


Experiments:
human fibrinogen [1] = molecular target: T1, human fibrinogen; test: SPR (BIAcore 3000), human fibrinogen amine-coupled to CM5 chip, vWbp injected, 1:1 model; target fibrinogen
human prothrombin [2] = molecular target: T2, human prothrombin (human, UniProt P00734 44-622); test: SPR (BIAcore 3000), human prothrombin amine-coupled to CM5 chip, vWbp injected, 1:1 model; target prothrombin
T2 construct: Amine-coupled to a CM5 chip

human fibrinogen [3] = molecular target: T1, human fibrinogen; test: SPR (BIAcore 3000), human fibrinogen amine-coupled to CM5 chip, Coa injected, 1:1 model
human prothrombin [4] = molecular target: T2, human prothrombin; test: SPR (BIAcore 3000), human prothrombin amine-coupled to CM5 chip, Coa injected at 0-75 nM, 1:1 model

Row | Binder | Kd (human fibrinogen [1]) [nM] | Kd (human prothrombin [2]) [nM] | Kd (human fibrinogen [3]) [nM] | Kd (human prothrombin [4]) [nM]
1 | von Willebrand factor binding protein (vWbp), recombinant mature protein with the His6 tag removed by Factor Xa (other, also called functionally active vWbp) VVSGEKNPYVSESLKLTNNKNKSRTVEEYKKSLDDLIWSFPNLDNERFDNPEYKEAMKKYQQRFMAEDEALKKFFSEEKKIKNGNTDNLDYLGLSHERYESVFNTLKKQSEEFLKEIEDIKKDNPELKDFNEEEQLKCDLELNKLENQILMLGKTFYQNYRDDVESLYSKLDLIMGYKDEERANKKAVNKRMLENKKEDLETIIDEFFSDIDKTRPNNIPVLEDEKQEEKNHKNMAQLKSDTEAAKSDESKRSKRSKRSLNTQNHKPASQEVSEQQKAEYDKRAEERKARFLDNQKIKKTPVVSLEYDFEHKQRIDNENDKKLVVSAPTKKPTSPTTYTETTTQVPMPTVERQTQQQIIYNAPKQLAGLNGESHDFTTTHQSPTTSNHTHNNVVEFEETSALPGRKSGSLVGISQIDSSHLTEREKRVIKREHVREAQKLVDNYKDTHSYKDRINAQQKVNTLSEGHQKRFNKQINKVYNGK | 484 | 38.4 |  | 
2 | coagulase (Coa), recombinant mature protein with the His6 tag removed by Factor Xa (other, also called functionally active Coa) IVTKDYSGKSQVNAGSKNGTLIDSRYLNSALYYLEDYIIYAIGLTNKYEYGDNIYKEAKDRLLEKVLREDQYLLERKKSQYEDYKQWYANYKKENPRTDLKMANFHKYNLEELSMKEYNELQDALKRALDDFHREVKDIKDKNSDLKTFNAAEEDKATKEVYDLVSEIDTLVVSYYGDKDYGEHAKELRAKLDLILGDTDNPHKITNERIKKEMIDDLNSIIDDFFMETKQNRPKSITKYNPTTHNYKTNSDNKPNFDKLVEETKKAVKEADDSWKKKTVKKYGETETKSPVVKEEKKVEEPQAPKVDNQQEVKTTAGKAEETTQPVAQPLVKIPQGTITGEIVKGPEYPTMENKTVQGEIVQGPDFLTMEQSGPSLSNNYTNPPLTNPILEGLEGSSSKLEIKPQGTESTLKGTQGESSDIEVKPQATETTEASQYGPRPQFNKTPKYVKYRDAGTGIREYNDGTFGYEARPRFNKPSETNAYNVTTHANGQVSYGARPTYKKPSETNAYNVTTHANGQVSYGARPTQNKPSKTNAYNVTTHGNGQVSYGARPTQNKPSKTNAYNVTTHANGQVSYGARPTYKKPSKTNAYNVTTHADGTATYGPRVTK |  |  | 93.1 | 28

— patent US9567379 (UNIVERSITY OF CHICAGO, dated 2017)
